In IntAct's records for PubMed 28348268:

B1: HLA class I histocompatibility antigen, alpha chain G (Homo sapiens), P17693-2 (parent)
chain: MVVMAPRTLFLLLSGALTLTETWAGSHSMRYFSAAVSRPGRGEPRFIAMGYVDDTQFVRFDSDSACPRMEPRAPWVEQEGPEYWEEETRNTKAHAQTDRMNLQTLRGYYNQSEANPPKTHVTHHPVFDYEATLRCWALGFYPAEIILTWQRDGEDQTQDVELVETRPAGDGTFQKWAAVVVPSGEEQRYTCHVQHEGLPEPLMLRWKQSSLPTIPIMGIVAGLVVLAAVVTGAAVAAVLWRKKSSD

Variants of: B1
Details: with lirb2_human LILRB2, Q8N423
Chain of lirb2_human LILRB2, Q8N423 (Q8N423 whole entry): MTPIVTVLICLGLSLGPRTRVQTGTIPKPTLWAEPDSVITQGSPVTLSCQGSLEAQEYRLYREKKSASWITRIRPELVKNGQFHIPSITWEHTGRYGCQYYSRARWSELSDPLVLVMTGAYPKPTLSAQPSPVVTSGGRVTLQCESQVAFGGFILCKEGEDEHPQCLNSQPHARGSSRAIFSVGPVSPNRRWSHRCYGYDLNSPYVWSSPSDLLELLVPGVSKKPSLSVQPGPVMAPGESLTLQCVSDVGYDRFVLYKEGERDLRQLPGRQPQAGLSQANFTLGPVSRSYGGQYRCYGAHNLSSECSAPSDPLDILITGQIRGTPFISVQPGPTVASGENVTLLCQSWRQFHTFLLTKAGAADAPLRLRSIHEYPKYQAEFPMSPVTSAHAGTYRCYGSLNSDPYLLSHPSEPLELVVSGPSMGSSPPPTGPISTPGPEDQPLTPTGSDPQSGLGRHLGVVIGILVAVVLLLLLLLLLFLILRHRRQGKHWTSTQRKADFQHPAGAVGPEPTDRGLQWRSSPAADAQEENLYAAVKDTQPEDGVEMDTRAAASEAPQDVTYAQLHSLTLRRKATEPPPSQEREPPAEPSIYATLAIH

effect of a mutation on the interaction	Variant
with no effect	MVVMAPRTLFLLLSGALTLTETWAGSHSMRYFSAAVSRPGRGEPRFIAMGYVDDTQFVRFDSDSASPRMEPRAPWVEQEGPEYWEEETRNTKAHAQTDRMNLQTLRGYYNQSEANPPKTHVTHHPVFDYEATLRCWALGFYPAEIILTWQRDGEDQTQDVELVETRPAGDGTFQKWAAVVVPSGEEQRYTCHVQHEGLPEPLMLRWKQSSLPTIPIMGIVAGLVVLAAVVTGAAVAAVLWRKKSSD [C66S]
